In US20190177709:

Assays:
Test in all cases: cell_activity
[1] = target: ZFN 65526 (right) F1 Qm5, F2 Qm5, F4 Qm5, F5 Qm5 (R to Q); FokI R416S (synthetic) (UniProt P14870); conditions: with 63014, L:R 60:15 ug RNA, CD34+ cells
[2] = target: ZFN 65549 (right) F1 Qm5, F2 Qm5, F3 Qm5, F4 Qm5 (R to Q); FokI K525S (synthetic) (UniProt P14870); conditions: with 63014, 60:60 ug RNA, CD34+ cells; Table 3 gives 79.82
[3] = target: ZFN 65550 (right) F1 Qm5, F2 Qm5, F4 Qm5, F5 Qm5 (R to Q); FokI K525S (synthetic) (UniProt P14870); conditions: with 63014, 60:60 ug RNA, CD34+ cells; Table 3 gives 79.96
[4] = target: ZFN 65459 (left) F1 Qm14 Qm5, F3 Qm5, F5 Qm5 (R to Q) (synthetic) (UniProt P14870); conditions: with 65526, L:R 60:15 ug RNA, CD34+ cells

Sequence | activity [1] | activity [2] | activity [3] | activity [4]
CACAGGCTCCAGGAAGGGTTTGGCCTCT (double strand) [BCL11A +58 right half-site] | 81.2 % indels | 80 % indels | 79.8 % indels | 
AAAGCAACTGTTAGCTTGCACTAGACTA (double strand) [BCL11A +58 left half-site] |  |  |  | 76.9 % indels
